{"source": "patent US20230301998A1", "about": "(SANFORD BURNHAM PREBYS MEDICAL DISCOVERY INSTITUTE, published 2023)", "binders": {"B1": {"name": "SHARPIN (endogenous, murine B16 melanoma cells) (other, mouse, UniProt Q91WA6 1-380, looked up)", "chain": "MSPPAGGAAVAADPASPVVLLAVHAAVRPLGAGQDAEAQPRKLQLIADPERPGRFRLGLLGTEPGAVSLEWPLEAICYTVRGPNQHELQPPPGGPGTFSVHFLDPEEAQQWAALVRDATAEGQNGSGSPAPAPAPAMCPISPPCSSMAQIPKATQPEVDLPQSSGNFKKEELATRLSQAIAGGDEKAAAQVAAVLAQHHVALNVQLMEAWFPPGPIRLQVTVEDATSVLSSSSSAHVSLKIHPHCSIAALQDQVFSEFGFPPAVQRWVIGRCLCMPERSLASYGVSQDGDPAFLYLLSAPREVSGQSLQNSKMDRKLGLFPQSLGLPHDLQPSSSSLPSPSQPGWSCPSCTFINASNRPGCEMCSTQRPCAWDPLAAAST"}, "B2": {"name": "SLC25A4 (other, human, UniProt P12235 2-298, looked up)", "chain": "GDHAWSFLKDFLAGGVAAAVSKTAVAPIERVKLLLQVQHASKQISAEKQYKGIIDCVVRIPKEQGFLSFWRGNLANVIRYFPTQALNFAFKDKYKQLFLGGVDRHKQFWRYFAGNLASGGAAGATSLCFVYPLDFARTRLAADVGKGAAQREFHGLGDCIIKIFKSDGLRGLYQGFNVSVQGIIIYRAAYFGVYDTAKGMLPDPKNVHIFVSWMIAQSVTAVAGLVSYPFDTVRRRMMMQSGRKGADIMYTGTVDCWRKIAKDEGAKAFFKGAWSNVLRGMGGAFVLVLYDEIKKYV", "notes": "endogenous protein co-purified from WM115 lysate"}, "B3": {"name": "MYL12A (other, human, UniProt P19105 1-171, looked up)", "chain": "MSSKRTKTKTKKRPQRATSNVFAMFDQSQIQEFKEAFNMIDQNRDGFIDKEDLHDMLASLGKNPTDEYLDAMMNEAPGPINFTMFLTMFGEKLNGTDPEDVIRNAFACFDEEATGTIQEDYLRELLTTMGDRFTDEEVDELYREAPIDKKGNFNYIEFTRILKHGAKDKDD", "notes": "as for B2"}, "B4": {"name": "SHARPIN (endogenous, human melanoma cells WM115 / A375) (other, UniProt Q9H0F6 1-387, looked up)", "chain": "MAPPAGGAAAAASDLGSAAVLLAVHAAVRPLGAGPDAEAQLRRLQLSADPERPGRFRLELLGAGPGAVNLEWPLESVSYTIRGPTQHELQPPPGGPGTLSLHFLNPQEAQRWAVLVRGATVEGQNGSKSNSPPALGPEACPVSLPSPPEASTLKGPPPEADLPRSPGNLTEREELAGSLARAIAGGDEKGAAQVAAVLAQHRVALSVQLQEACFPPGPIRLQVTLEDAASAASAASSAHVALQVHPHCTVAALQEQVFSELGFPPAVQRWVIGRCLCVPERSLASYGVRQDGDPAFLYLLSAPREAPATGPSPQHPQKMDGELGRLFPPSLGLPPGPQPAASSLPSPLQPSWSCPSCTFINAPDRPGCEMCSTQRPCTWDPLAAAST"}, "B5": {"name": "GSTP1 (other, human, UniProt P09211 2-210, looked up)", "chain": "PPYTVVYFPVRGRCAALRMLLADQGQSWKEEVVTVETWQEGSLKASCLYGQLPKFQDGDLTLYQSNTILRHLGRTLGLYGKDQQEAALVDMVNDGVEDLRCKYISLIYTNYEAGKDDYVKALPGQLKPFETLLSQNQGGKTFIVGDQISFADYNLLDLLLIHEVLAPGCLDAFPLLSAYVGRLSARPKLKAFLASPEYVNLPINGNGKQ", "notes": "as for B2"}, "B6": {"name": "MYL128 (other, human, UniProt O14950 1-172, looked up)", "chain": "MSSKKAKTKTTKKRPQRATSNVFAMFDQSQIQEFKEAFNMIDQNRDGFIDKEDLHDMLASLGKNPTDAYLDAMMNEAPGPINFTMFLTMFGEKLNGTDPEDVIRNAFACFDEEATGTIQEDYLRELLTTMGDRFTDEEVDELYREAPIDKKGNFNYIEFTRILKHGAKDKDD", "notes": "endogenous protein co-purified from WM115 lysate; also called MYL12B"}}, "key": {"[1]": {"target": "T1, Interferon-activable protein 204 (Mus musculus) (IFI204) (Mus musculus, UniProt P0DOV2 1-619)", "T1 construct": "also called IF204", "T1 sequence": "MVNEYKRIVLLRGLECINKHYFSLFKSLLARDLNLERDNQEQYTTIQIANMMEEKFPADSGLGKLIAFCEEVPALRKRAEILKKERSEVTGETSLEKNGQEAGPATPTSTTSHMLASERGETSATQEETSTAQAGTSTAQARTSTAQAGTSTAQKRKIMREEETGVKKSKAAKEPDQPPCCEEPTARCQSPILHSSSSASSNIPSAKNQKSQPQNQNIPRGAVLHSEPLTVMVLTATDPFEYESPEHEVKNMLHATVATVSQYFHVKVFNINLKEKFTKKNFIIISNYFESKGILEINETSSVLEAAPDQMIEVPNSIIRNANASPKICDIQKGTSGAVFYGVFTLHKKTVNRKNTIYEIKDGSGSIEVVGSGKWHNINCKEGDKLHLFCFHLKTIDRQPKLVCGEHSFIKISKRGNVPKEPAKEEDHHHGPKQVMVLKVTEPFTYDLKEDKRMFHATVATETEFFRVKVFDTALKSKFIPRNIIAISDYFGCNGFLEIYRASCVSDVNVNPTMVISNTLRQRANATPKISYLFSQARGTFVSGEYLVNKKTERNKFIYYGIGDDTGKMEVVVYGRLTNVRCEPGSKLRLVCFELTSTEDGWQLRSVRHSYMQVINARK", "test": "co-immunoprecipitation and immunoblot, B16 cell lysates (FIG. 8D)", "description": "FIG. 8D depicts B16 cells were treated with vehicle (DMSO) or PRMT5 inhibitor (PRMT5i; EPZ015666, 10 μM) for 48. IP followed by IB of B16 cells lysates (1.5 mg) was performed with the indicated antibodies. SYM10 indicates anti-symmetric dimethyl arginine antibody (Millipore). FIGS. 8E and 8F depict A375 (FIG. 8E) or B16 (FIG. 8F) cells treated with vehicle or a PRMT5 inhibitor (EPZ015666) as above before lysates [A375 (1.0 mg), B16 (2.5 mg)] were prepared and subjected to IP followed by immunoblotting with indicated antibodies. FIG. 8G depicts B16 cells stably expressing indicated constructs were treated 24 h with DMSO or PRMT5i before lysates were IP'ed with V5 antibody and immunoblotted with indicated antibodies.\nImmunoblotting was performed using standard protocols. Melanoma cells were lysed by incubation in RIPA buffer [50 mM Tris-HC1, pH7.4, 1% (v/v) NP40, 0.1% (w/v) sodium deoxycholate, 0.1% (w/v) sodium dodecyl sulfate, 150 mM NaCl, 1mM EDTA, and protease and phosphatase inhibitor cocktails (Thermo Fisher Scientific)] and freeze-thawed 3 times. For immunoprecipitation HEK293T cells were lysed in 1% Triton X-100 buffer [50 mM Tris-HC1, pH7.4, 1% (v/v) Triton X-100, 150 mM NaCl, 1 mM EDTA, and protease and phosphatase inhibitor cocktails (Thermo Fisher Scientific)] and freeze-thawed 3 times. […]"}, "Flag-tagged SHARPIN": {"target": "T2, Flag-tagged SHARPIN (human, UniProt Q9H0F6 1-387)", "T2 construct": "also called Flag-SHARPIN; not shown: FLAG tag", "T2 sequence (looked up)": "B4 chain", "test": "Flag IP of Flag-SHARPIN from WM115 lysate, on-bead tryptic digestion, LC/MS-MS", "procedure": "To identify SHARPIN-interacting proteins, WM115 cells were transfected with Flag-tagged SHARPIN or control empty plasmid. Cell lysates were prepared using 1% Triton X-100 buffer [50 mM Tris-HCl, pH7.4, 1% (v/v) Triton X-100, 150 mM NaCl, 1 mM EDTA, and protease and phosphatase inhibitor cocktails (Thermo Fisher Scientific)]. Lysates were pre-cleared with protein A/G beads (Santa Cruz Biotechnology) for 1 h at 4° C. followed by immunoprecipitation using FLAG-M2-agarose beads (Sigma-Aldrich) overnight at 4° C. Beads were then washed with lysis buffer and TBS containing lx protease inhibitor cocktail before being subjected to on-bead tryptic digestion followed by mass spectrometry. In Vitro Methylation Assay."}, "[2]": {"target": "T3, Gamma-interferon-inducible protein 16 (IFI16) (human, UniProt Q16666 1-785)", "T3 construct": "Endogenous protein in WM115 / A375", "T3 sequence": "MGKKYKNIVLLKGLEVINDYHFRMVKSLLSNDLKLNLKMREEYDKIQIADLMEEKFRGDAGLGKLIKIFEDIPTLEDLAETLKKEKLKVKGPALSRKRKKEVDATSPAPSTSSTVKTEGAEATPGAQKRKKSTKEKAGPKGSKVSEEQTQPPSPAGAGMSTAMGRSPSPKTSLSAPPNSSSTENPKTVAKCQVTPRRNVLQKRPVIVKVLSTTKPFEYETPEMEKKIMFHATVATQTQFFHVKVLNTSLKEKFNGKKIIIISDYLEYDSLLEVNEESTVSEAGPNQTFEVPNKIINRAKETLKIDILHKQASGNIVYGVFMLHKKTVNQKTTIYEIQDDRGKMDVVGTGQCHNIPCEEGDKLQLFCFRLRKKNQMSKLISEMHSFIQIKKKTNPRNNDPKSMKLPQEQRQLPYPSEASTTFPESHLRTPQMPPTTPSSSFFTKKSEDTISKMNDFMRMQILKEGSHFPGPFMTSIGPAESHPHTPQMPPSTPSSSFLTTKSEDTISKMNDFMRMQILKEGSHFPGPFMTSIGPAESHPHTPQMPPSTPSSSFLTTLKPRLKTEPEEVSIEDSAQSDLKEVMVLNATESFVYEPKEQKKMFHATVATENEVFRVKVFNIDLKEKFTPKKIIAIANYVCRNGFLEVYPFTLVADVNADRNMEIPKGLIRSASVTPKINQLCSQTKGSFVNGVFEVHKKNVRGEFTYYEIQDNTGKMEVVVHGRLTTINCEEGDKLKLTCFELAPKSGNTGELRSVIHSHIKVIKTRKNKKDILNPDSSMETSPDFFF", "test": "co-immunoprecipitation and immunoblot, human melanoma cell lysates (FIGS. 8C, 10C)"}}, "data": [{"binder": "B1", "values": [{"measurement": "binding result", "setting": "[1]", "result": "binds"}]}, {"binder": "B2", "values": [{"measurement": "binding result", "setting": "Flag-tagged SHARPIN", "result": "binds"}]}, {"binder": "B3", "values": [{"measurement": "binding result", "setting": "Flag-tagged SHARPIN", "result": "binds"}]}, {"binder": "B4", "values": [{"measurement": "binding result", "setting": "[2]", "result": "binds"}]}, {"binder": "B5", "values": [{"measurement": "binding result", "setting": "Flag-tagged SHARPIN", "result": "binds"}]}, {"binder": "B6", "values": [{"measurement": "binding result", "setting": "Flag-tagged SHARPIN", "result": "binds"}]}]}
